Some targets named below: FcγRIIa-R131 (human) (UniProt P12318); FcγRIIb (human) (UniProt P31994); FcγRIIa-H131 (human) (UniProt P12318).
Common to all, as to assay: method not stated for Table 5; Fc variant against Fcγ receptor

Sequence of FcγRIIb (human) (P31994 43-217 limits assumed): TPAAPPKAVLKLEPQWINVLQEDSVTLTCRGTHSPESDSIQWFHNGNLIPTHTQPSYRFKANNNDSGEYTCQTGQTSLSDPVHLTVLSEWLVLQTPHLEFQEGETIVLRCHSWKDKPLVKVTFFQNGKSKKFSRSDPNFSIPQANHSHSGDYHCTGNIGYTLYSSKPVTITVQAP
Sequence of FcγRIIa-R131 (human) (P12318 34-218 H167R limits assumed): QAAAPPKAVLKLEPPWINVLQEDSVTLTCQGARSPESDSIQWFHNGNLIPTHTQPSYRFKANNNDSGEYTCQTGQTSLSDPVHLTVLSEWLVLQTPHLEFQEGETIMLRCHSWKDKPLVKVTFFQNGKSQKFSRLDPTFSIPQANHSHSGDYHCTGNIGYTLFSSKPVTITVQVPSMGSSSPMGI
Sequence of FcγRIIa-H131 (human) (P12318 34-218 limits assumed): as the sequence (P12318 34-218 H167R limits assumed) above, with R134H counted along it

Consider “SELF Fc sequence variant (Table 5) (antibody)”, for which, in the experiment with FcγRIIa-R131 (human), the Kd (in general, a measure of binding affinity in units of concentration) was 2 nM.
“P238D Fc sequence variant (Table 5) (antibody)” returned a Kd with FcγRIIb (human) of 950 nM.
As to “SE Fc sequence variant (Table 5) (antibody)”, the Kd worked out at 22 nM with FcγRIIa-R131 (human), 98 nM with FcγRIIb (human) and 520 nM in the experiment with FcγRIIa-H131 (human).
The matching figures for “IgG1f Fc sequence variant (Table 5) (antibody)”: 850 nM, 3900 nM and 530 nM.

(Values after patent publication US20180142030A1.)
